In the supplement of paper PMC12042874 one finds amyloid nucleation score data, which are given here for 140 substances.

± gives the uncertainty stated by the source.

This data set in a line: amyloid nucleation score (Sup35N fusion, yeast selection) (log enrichment); library NNK1; higher = more nucleation; inactive = no reads after selection. The essentials:
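The nucleation score is the DiMSum log enrichment of output over input reads, centred on the mode score of non-aggregating sequences. Only sequences with 100 or more input reads were scored, using Illumina sequencing of input and output plasmid inserts. Psi-negative yeast expressing Sup35N fused to peptides of 20 random codons were induced 24 hours with 100 μM copper sulfate and grown 7 days at 30°C on medium lacking adenine and uracil.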
Substance FDVMKFYIYLGYSVVPVM came in with an amyloid nucleation score of -1.09 ± 0.43.

GDYVRWVRSGYLMQLLNEDS returned an amyloid nucleation score of -0.379 ± 0.75. The figure for LSSSGFWYWFT is -0.251 ± 0.32.

With SFMVFYNLVCLHMMSNFVAL, the amyloid nucleation score is 0.377 ± 0.68. The figure for KFIVVS is 0.507 ± 0.62; for CYLKGYA it is 0.853 ± 0.52.

In turn, RLSSRVIRKNFDYQTFCHED yielded an amyloid nucleation score of 0.414 ± 0.34. For FLTTLGWSYHRQNQLRMPRF the value was 2.24 ± 0.16; for LVNVGGQEIKVMR, 0.888 ± 0.2; for GDRKACSVRCRHATDKICAD, -0.309 ± 0.57. The figure for IVWVDLNRIGSCAGLGINYY is 0.18 ± 0.41; for SLLTRDVYNRRAR it is -0.562 ± 0.36. For KKALTALM the value was 0.822 ± 0.98; for AQARWCWRLH, 0.963 ± 0.69; for IVRVLCSLLIQFKVNAY, “inactive”. EFGASRNAYTMRRILENGSA yielded an amyloid nucleation score of -0.123 ± 0.38. The figure for NARWV is 0.613 ± 0.38; for RRIGIGYGLLCRAWAYLYVL it is -0.477 ± 1.2. The figure for EMRLCRPCREYLLKSPT is 0.31 ± 0.37; for WCRDLHKLYLY it is -0.2 ± 0.56; for IGPGTWGLSLYRDRILITTM it is -0.037 ± 0.89. For VYNAPGCVNRSDLVV, the amyloid nucleation score is -0.745 ± 2.4.

In turn, TAAGSNQSEAFFFTNIISE displayed an amyloid nucleation score of 0.078 ± 0.84.

The substance ILSICLSLVFRPSVMIEYLR returned an amyloid nucleation score of 0.191 ± 0.26. YGTNRSWGDMEKISSHKRCW displayed an amyloid nucleation score of -0.321 ± 0.34. IGCLKFSFFHNLGFGSIDYR gave an amyloid nucleation score of -0.742 ± 0.53. The figure for GMYLYIPLSITFTVEHTVVA is 5.02 ± 0.093; for QNYSLNWSITGLVRLLSRIC it is -0.73 ± 0.55.

The substance WSTHRQESFALYSKCMEVRR yielded an amyloid nucleation score of 0.186 ± 0.28.

Consider GFRQVSCHHHWGGNSWMCR, for which the amyloid nucleation score was 0.717 ± 0.19. For FPGSRDPGVNRSWSYNSIDT the value was 1.87 ± 0.14. For TSTARISQPDNRVGLNF the value was -0.032 ± 0.44; for HTQDYEEFIFCLM, “inactive”; for YRSFAYEGSSRIGG, -0.022 ± 0.38. The substance YNFFGCVCDAPPPKCLVYFM had an amyloid nucleation score of 7.596 ± 0.075. The figure for GNLVTCNSKYTRMEG is 0.166 ± 0.49; for WSATSATMLQSLPVQEEHVD it is -0.38 ± 0.83; for CFLVGSWTPI it is 0.215 ± 0.76. VNFYDRAYRIWCCRNASE: the amyloid nucleation score came out at 3.34 ± 0.088. FSLRDISNISIWAYLNQPCR displayed an amyloid nucleation score of -0.341 ± 0.32. For NCECVFIPMKEPGFYR the value was -0.357 ± 0.63. The figure for WWGWKIDTNAQILARLCKCL is -0.005 ± 1.2. For GFFGFIGRVMVIGRWREVPG the value was -0.265 ± 0.24; for MAGPYLVERRSMWASNARAE, -1.07 ± 1.4. The substance ICSWPNRRVAVPH came in with an amyloid nucleation score of -0.482 ± 1.2. As to WFTAHMCDNHYSTIPNSPRQ, the amyloid nucleation score was 1 ± 0.81. The entry for GYYIEMLYFMEALDIS is “inactive”; for PWYKSLSRPSGGKTVLLRNM it is -0.113 ± 0.43. Turning to LRKCSLAVPYGLRLVYLRKE, the amyloid nucleation score came out at 0.14 ± 0.54. Turning to VWRSFKSMHSHRSNSNALWL, the amyloid nucleation score is 1.96 ± 0.6.

The substance FGFSKWSSMLIRHQPYDLFI had an amyloid nucleation score of -1.1 ± 1.

On to GSARYCSYCWRTSDITWIIH, for which the amyloid nucleation score came out at 1.71 ± 0.13. Substance HWTTHESRKMVGQRFQPVGG yielded an amyloid nucleation score of 0.078 ± 0.34. For LSRFEQGHELLHKSVIYCEV the value was -0.304 ± 0.32; for WNIRRIRSDTRTLFKCNL, 0.636 ± 0.32; for GSRRDRISLRSQRVCILEKG, 1.95 ± 0.6.

In the case of ACHQGGMTSPNTRSTLFRVW, the amyloid nucleation score was found to be 0.8 ± 0.51. For SQVMSRLLGKFKLY the value was -0.609 ± 0.32; for KILTVHPSHNDPC, -1.32 ± 1.9; for ILGMFSTICDGWADVMH, 0.525 ± 0.36. Substance VTACGYRMRRCRCFCECNGT came in with an amyloid nucleation score of 0.72 ± 0.57. The figure for FDECGAGLLPTG is -0.198 ± 0.41. For RKYEGGRAKVWHGPCSVS the value was 1.07 ± 0.76. The figure for MCREYVFDNSPVT is -0.89 ± 1.2; for FGFMKKRRDLSY it is 2.96 ± 0.091; for TLLNGFFATSYCGCFFGSRT it is 3.95 ± 0.13. VVTSLIL showed an amyloid nucleation score of -0.999 ± 1.2. FQGTIR gave an amyloid nucleation score of 0.193 ± 1. The figure for TNSFYYGSVSTCYSRCNCKF is 7.362 ± 0.048; for FEYNRYRLLYTTYLGPVGGI it is -1.56 ± 0.64; for YYLIMP it is 0.322 ± 0.41. The figure for AEWLWEVGGMGCQVKGEEAR is -0.34 ± 0.36; for TKVDRLALSM it is 0.658 ± 0.59. For FVCWRYRCFLWELEEDGLVN the value was 0.627 ± 0.71; for VLHCCNAESWLGGWPLGVKN, 0.85 ± 0.6; for KVCTHYSTHRWLSSQPSKVV, -0.696 ± 1.9.

As for FRTRGFLHSKVLVRLQYWIK, the amyloid nucleation score worked out at 0.494 ± 0.5. Regarding RWSAFSVYAWGAYKLRC, the amyloid nucleation score came out at 2.41 ± 0.11. The figure for VNWVLIERWVVS is -1.13 ± 0.85; for SSLMPIYRLFLWFVKVYVKP it is 9.39 ± 0.049. Substance LCLRVEGGNKPTEHCITSPT had an amyloid nucleation score of -0.234 ± 0.43. NWVRFIHFYYNGTRLWAEFV yielded an amyloid nucleation score of -0.915 ± 0.74. For RDMRLLAFRLPIRRFTRGST the value was -0.097 ± 0.44; for ETRANGVESFSTDLYMHFLD, 1.16 ± 0.36; for LQWNRERGLTLLSWLRYKSI, -0.505 ± 1.5. The figure for MRLNYGNITLSFGSPMMQTI is 0.682 ± 0.15; for TYCKASGVR it is 0.371 ± 0.75. The figure for NLKCF is 0.905 ± 0.47; for GPQIGG it is 1.38 ± 0.17; for YKSVRSVVWWCLRNSLHFVW it is 1.91 ± 0.6. As to NNQSTGWCETN, the amyloid nucleation score result is “inactive”. The figure for HVQEDLNAVGHPLEFEMTVR is -0.979 ± 1.9. Turning to TPCLKQLLLSSLILEGP, the amyloid nucleation score is -0.6 ± 0.64. For AVHICYNYRSYSI the value was 0.5 ± 0.95; for AESSLLSLIVFNTNYFEAGQ, 6.753 ± 0.046; for SFNVNLGSHRDVMIVFSF, 6.24 ± 0.064. For VNAIRSHAVWNGGQGPRFHS the value was -0.098 ± 0.42; for MFVRPRESAEHMLGFRVYSG, 0.452 ± 0.37; for TGFKI, -0.973 ± 0.97. For KHSNLYIFPGVYFFQITSLY the value was 3.96 ± 0.088. As to VGCADEMVPMEFMCWLGIIF, the amyloid nucleation score was -0.909 ± 2.7. For KLSVGLRYCRPATRTSAHVM the value was 0.271 ± 0.35. The figure for VHATLLNHA is 0.898 ± 0.64. For RNVRGSSKT, the amyloid nucleation score is 1.37 ± 0.48. For DYFSRKPGNCFWFAIARDNT the value was -0.398 ± 1.2; for FLGLLVPFFNWRDKKRKYSG, 0.012 ± 0.79. For TGNGRDVLHSSALKVPNRR the value was 0.715 ± 0.43. For AELILFIVLELMKRAFLSS the value was -0.795 ± 0.4; for MYINGWYWTDGFIVNYQWMG, 0.626 ± 0.55.

As to WRIEACFSNFARTIFLVSGW, the amyloid nucleation score is -0.399 ± 0.3. Consider IRYCFCKIK, for which the amyloid nucleation score was determined as 0.312 ± 1.1. The figure for SSWSFHARWRVRAISCACN is -0.062 ± 0.51. For MFEFKKPD the value was -0.015 ± 0.73; for WSFTK, -0.284 ± 0.68.

In turn, PLIITTMFGASVRESFHVVL returned an amyloid nucleation score of 1.21 ± 0.4.

The substance DLLETKWIPSLVYKSFESLW registered an amyloid nucleation score of -0.137 ± 0.63. The figure for LWHAYAKSGYPFGSMVGVHA is 0.703 ± 0.4. Regarding SVPKLKAEVE, the amyloid nucleation score is -0.273 ± 0.2. For LGESREVSGHDNRCWAFQ the value was 0.594 ± 0.49. As for LEALGYLWDKWAYYAMVMRS, the amyloid nucleation score was 0.836 ± 0.97. For WFAFIWNNRKCNFRKGTRDV the value was 6.11 ± 0.075; for TGLSCCCMNISRNGREMVPR, 6.281 ± 0.058. In turn, RWLPPLRVRIRDHTHIITDK registered an amyloid nucleation score of 2.22 ± 0.17.

For DVDTRRT, the amyloid nucleation score result is “inactive”. AGGAP: the amyloid nucleation score is 0.501 ± 0.89. As for WQSCWIWTKCRTVDVRRKKD, the amyloid nucleation score is -0.598 ± 0.43. The figure for VRACSCMDCDTVYRNVLSMG is -1.79 ± 2.4; for DLCTNYQWFRAAYCYMSRVY it is 1.2 ± 0.98. The substance LWERGKCHEACVVPAKKEGT registered an amyloid nucleation score of 0.039 ± 0.51. In the case of VMGIDSFTYAG, the amyloid nucleation score is -0.315 ± 0.54.

In the case of HIESNYRSERTDGWYICRSG, the amyloid nucleation score stood at 1.11 ± 0.2.

In turn, HKRLVGSYWFIFYSVTRYQE came in with an amyloid nucleation score of -0.685 ± 1.7. For AFTFGYTFQFYLLASTYMIR the value was “inactive”; for AHTLSYVFWLYHMDQCVLFV, -0.127 ± 1.4; for YHSWECLHRTANIIWEYFRD, -0.019 ± 0.81. The figure for ILMMPLIESCMEVLGHPS is 0.873 ± 0.51; for RRSLYYGITIN it is -0.337 ± 0.32; for CKMWTE it is 0.405 ± 0.75. For KDSGYMCWMGDLCVWSP, the amyloid nucleation score came to 5.97 ± 0.097. For MGGTLRNRRGTKVRSELGGD the value was -0.817 ± 1.7.
